Measurements taken from patent US20030171289A1 (INSTITUT PASTEUR, published 2003).

B1: phage-displayed peptide K1 (M13 phage clone) (peptide)
chain: YLTMPTP
notes: not shown: M13 phage coat protein of the Ph.D.-7 library
B2: phage-displayed peptide K2 (M13 phage clone) (peptide)
chain: WPTPPYA
notes: as for B1
B3: phage-displayed peptide K3 (M13 phage clone) (peptide)
chain: TPHNTVS
notes: as for B1
B4: phage-displayed peptide K4 (M13 phage clone) (peptide)
chain: SLPAHAR
notes: as for B1
B5: phage-displayed peptide K5 (M13 phage clone) (peptide)
chain: HSSLQTP
notes: as for B1
B6: phage-displayed peptide K6 (M13 phage clone) (peptide)
chain: YSIPKSS
notes: as for B1
B7: phage-displayed peptide K7 (M13 phage clone) (peptide)
chain: ALQPRYL
notes: as for B1
B8: phage-displayed peptide V2 (M13 phage clone) (peptide)
chain: NPRALNY
notes: as for B1
B9: phage-displayed peptide V3 (M13 phage clone) (peptide)
chain: ANLFKAK
notes: as for B1
B10: phage-displayed peptide V4 (M13 phage clone) (peptide)
chain: YHSSFQA
notes: as for B1
B11: phage-displayed peptide V5 (M13 phage clone) (peptide)
chain: ILDNYKL
notes: as for B1
B12: phage-displayed peptide V6 (M13 phage clone) (peptide)
chain: LPPNPTK
notes: as for B1
B13: phage-displayed peptide V7 (M13 phage clone) (peptide)
chain: YAIMPLV
notes: as for B1
B14: synthetic peptide V1 (ATWLPPR) (peptide)
peptide: ATWLPPR
notes: Synthetic peptide (Neosystem); also called V1 peptide

Biological target: T1, KDR (kinase domain receptor, VEGFR-2) expressed on cells (UniProt P35968 20-1356, limits assumed)
T1 construct: whole, on cells; The same molecule is used for KDR on CHO-KDR cells and for VEGF-R2 on HUV-EC cells; the cells are named under assay; also called KDR/Flk-1; VR2
Test: phage ELISA on CHO-KDR cells, 10^13 pfu/ml
Description: Results are representative of three independent assays.
(§1) Exponentially growing CHO-KDR cells were seeded in 96-well microtiter plates at 7×10⁴ cells/well and left overnight at 37 C. Cells were fixed with paraformaldehyde (4% in PBS) for 15 min at room temperature and washed with PBS. Wells were then filled with PBS-Glycine 0.2%, kept for 15 min at room temperature and then washed with PBS. Phage particles (10¹² or 10¹³/ml) were added to each well and incubated 2 h at room temperature. Wells were washed with PBS and the amount of bound phage was detected with peroxidase-conjugated anti-M13 phage serum (Pharmacia Biotech, Uppsala, Sweden).

T1 sequence (P35968 20-1356 limits assumed): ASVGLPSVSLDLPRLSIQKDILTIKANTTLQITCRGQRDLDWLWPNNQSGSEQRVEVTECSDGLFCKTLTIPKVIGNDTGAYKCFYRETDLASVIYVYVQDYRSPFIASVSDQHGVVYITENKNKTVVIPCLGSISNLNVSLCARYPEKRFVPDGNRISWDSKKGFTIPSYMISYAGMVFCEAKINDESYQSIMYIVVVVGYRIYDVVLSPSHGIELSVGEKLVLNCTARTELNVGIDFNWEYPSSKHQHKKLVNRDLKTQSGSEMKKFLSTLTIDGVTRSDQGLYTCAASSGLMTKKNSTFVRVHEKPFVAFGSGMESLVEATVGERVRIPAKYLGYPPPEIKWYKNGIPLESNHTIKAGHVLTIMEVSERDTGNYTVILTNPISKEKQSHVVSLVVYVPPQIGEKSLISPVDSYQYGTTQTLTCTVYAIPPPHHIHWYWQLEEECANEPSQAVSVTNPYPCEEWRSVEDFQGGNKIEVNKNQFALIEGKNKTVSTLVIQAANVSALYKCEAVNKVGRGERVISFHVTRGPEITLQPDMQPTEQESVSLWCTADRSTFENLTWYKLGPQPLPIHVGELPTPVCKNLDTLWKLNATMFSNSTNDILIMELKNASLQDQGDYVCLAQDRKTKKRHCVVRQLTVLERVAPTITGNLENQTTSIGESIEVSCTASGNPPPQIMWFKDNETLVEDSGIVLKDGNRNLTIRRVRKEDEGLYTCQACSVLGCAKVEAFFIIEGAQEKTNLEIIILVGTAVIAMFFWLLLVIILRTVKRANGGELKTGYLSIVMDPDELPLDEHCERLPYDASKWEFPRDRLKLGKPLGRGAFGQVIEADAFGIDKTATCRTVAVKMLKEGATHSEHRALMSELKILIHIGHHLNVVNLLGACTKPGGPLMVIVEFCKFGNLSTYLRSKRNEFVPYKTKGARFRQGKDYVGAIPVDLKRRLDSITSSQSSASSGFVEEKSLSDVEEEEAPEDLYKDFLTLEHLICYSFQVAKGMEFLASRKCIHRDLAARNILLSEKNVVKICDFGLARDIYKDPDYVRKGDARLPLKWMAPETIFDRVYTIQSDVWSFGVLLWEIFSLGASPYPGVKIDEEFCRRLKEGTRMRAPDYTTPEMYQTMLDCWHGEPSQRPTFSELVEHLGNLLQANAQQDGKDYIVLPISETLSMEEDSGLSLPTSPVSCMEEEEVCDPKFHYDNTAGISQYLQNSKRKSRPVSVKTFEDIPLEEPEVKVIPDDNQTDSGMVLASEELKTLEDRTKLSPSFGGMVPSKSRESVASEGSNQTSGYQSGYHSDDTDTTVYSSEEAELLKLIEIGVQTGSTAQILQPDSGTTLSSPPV

Binder	binding result
B1	binds
B2	binds
B3	binds
B4	binds
B5	binds
B6	binds
B7	binds

Biological target: T1, KDR (kinase domain receptor, VEGFR-2) …
Test: phage ELISA on fixed CHO-KDR cells
Description: as §1

Binder	binding result
B8	binds
B9	binds
B10	binds
B11	binds
B12	binds
B13	binds

Biological target: T1, KDR (kinase domain receptor, VEGFR-2) …
Test: displacement of 125I-VEGF165 from CHO-KDR cells

Binder	Efficiency (% Emax)
B14	100 % Emax
AAWLPPR (Ala scan analogue of ATWLPPR (V1)) [V1 analogue A2]	61 % Emax
ATALPPR (Ala scan analogue of ATWLPPR (V1)) [V1 analogue A3]	70 % Emax
ATWAPPR (Ala scan analogue of ATWLPPR (V1)) [V1 analogue A4]	31 % Emax
ATWLAPR (Ala scan analogue of ATWLPPR (V1)) [V1 analogue A5]	65 % Emax
ATWLPAR (Ala scan analogue of ATWLPPR (V1)) [V1 analogue A6]	84 % Emax

Biological target: T1, KDR (kinase domain receptor, VEGFR-2) …
Test: displacement of 125I-VEGF165 from CHO-KDR cells, curve fitting (CI50)

Binder	IC50
B14	18.8 µM
AAWLPPR (Ala scan analogue of ATWLPPR (V1)) [V1 analogue A2]	30.9 µM
ATALPPR (Ala scan analogue of ATWLPPR (V1)) [V1 analogue A3]	26.8 µM
ATWAPPR (Ala scan analogue of ATWLPPR (V1)) [V1 analogue A4]	60.7 µM
ATWLAPR (Ala scan analogue of ATWLPPR (V1)) [V1 analogue A5]	29.1 µM
ATWLPAR (Ala scan analogue of ATWLPPR (V1)) [V1 analogue A6]	22.4 µM

Biological target: T1, KDR (kinase domain receptor, VEGFR-2) …
Test: competition with 125I-VEGF for binding to CHO-KDR cells
Description: (§2) Competition assay of binding to CHO-KDR cells. CHO-KDR cells were seeded in 24-well plates at a density of 5×10⁵ cells/well. After 24 h, subconfluent plates were transferred at 4 C, and all subsequent operations were done at 4 C. […] After 3 h, cells were washed five times with binding buffer and solubilized by the addition of 0.5 M NaOH.

Binder	IC50
B14	~80 µM

Biological target: T1, KDR (kinase domain receptor, VEGFR-2) …
Test: competition with 125I-VEGF for binding to CHO-KDR cells, fixed peptide concentration
Description: as §2

Binder	binding result
SLPAHAR (Synthetic peptide (Neosystem)) [synthetic peptide K4 (SLPAHAR)]	binds

Biological target: T1, KDR (kinase domain receptor, VEGFR-2) …
Test: displacement of 125I-VEGF165 from CHO-KDR cells
Remark: another data set of the same source

Binder	factor by which the inhibitory efficiency is lowered against V1
AAAAAAR (position 1 is already alanine) [V1 analogue A11 (the 6 amino acids upstream to arginine substituted by alanine)]	10 fold

Biological target: T2, neuropilin 1 (UniProt O14786 22-923, limits assumed)
T2 construct: whole, on cells; also called NP 1; NP1
Test: displacement of 125I-VEGF165 from MDA-MB 231 cells (neuropilin 1, no VEGF-R2)

T2 sequence (O14786 22-923 limits assumed): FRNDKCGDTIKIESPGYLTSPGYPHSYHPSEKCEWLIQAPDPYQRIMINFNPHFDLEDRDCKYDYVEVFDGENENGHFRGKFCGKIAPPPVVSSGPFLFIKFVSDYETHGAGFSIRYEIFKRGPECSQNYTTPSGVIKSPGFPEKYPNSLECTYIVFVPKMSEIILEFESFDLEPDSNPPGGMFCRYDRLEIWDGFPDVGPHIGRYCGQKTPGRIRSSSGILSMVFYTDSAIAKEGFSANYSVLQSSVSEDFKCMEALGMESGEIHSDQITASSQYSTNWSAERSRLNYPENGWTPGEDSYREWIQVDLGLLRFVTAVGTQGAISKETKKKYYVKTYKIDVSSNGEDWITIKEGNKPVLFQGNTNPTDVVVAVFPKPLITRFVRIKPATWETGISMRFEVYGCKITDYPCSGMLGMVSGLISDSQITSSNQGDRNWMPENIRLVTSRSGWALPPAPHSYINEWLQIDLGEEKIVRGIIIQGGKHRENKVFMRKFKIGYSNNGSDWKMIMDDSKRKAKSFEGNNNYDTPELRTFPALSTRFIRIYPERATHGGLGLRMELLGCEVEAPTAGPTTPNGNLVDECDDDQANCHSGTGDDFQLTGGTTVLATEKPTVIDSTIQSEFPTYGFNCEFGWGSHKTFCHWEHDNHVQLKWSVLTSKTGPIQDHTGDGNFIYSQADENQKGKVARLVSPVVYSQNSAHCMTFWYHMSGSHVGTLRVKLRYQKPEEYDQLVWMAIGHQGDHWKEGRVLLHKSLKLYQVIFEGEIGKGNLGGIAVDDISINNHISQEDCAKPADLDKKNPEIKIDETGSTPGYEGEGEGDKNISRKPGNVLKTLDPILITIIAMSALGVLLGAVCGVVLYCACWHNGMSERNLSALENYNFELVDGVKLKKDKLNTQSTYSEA

Binder	IC50
B14	38 µg/mL
